Measurements from US20030138894.

Tested on: ACE-2 inhibitor peptide (the most active ACE-2 inhibitor peptide, Example 9)

| Substance | hydrolysis of the substrate, hip his-leu (250 mM) by ACE (1.5 nM) | conversion of angiotensin I to A1-9 by ACE-2 |
| --- | --- | --- |
| Angiotensin converting enzyme (ACE) | the inhibitor did not affect the hydrolysis of the substrate, hip his-leu (250 mM) by ACE (1.5 nM), even at 25 mM |  |
| recombinant human-ACE-2 |  | This peptide also inhibited conversion of angiotensin I to A1-9 by ACE-2. |
